Target: ParE30-ParC55 fusion protein (fused ParE-ParC cleavage core of S. pneumoniae topo IV) (Streptococcus pneumoniae)
Experiment: crystal structure; ParE30-ParC55 fusion protein (4.5 mg/ml) mixed with 18-mer V-site or E-site duplex DNA at 1:1.2 molar ratio, 2 mM delafloxacin, 10 mM MgCl2; sitting-drop vapour diffusion, 50 mM sodium cacodylate, 62.5 mM KCl, 7.5 mM MgCl2, 2.5% Tacsimate, 5.5–7% isopropanol, pH 6.5, 301 K; V18 with PEGylated graphene nucleant 2.0 Å, V18 and E18 without 2.4 Å

Work on “ParE30-ParC55 fusion protein (fused ParE-ParC cleavage core of S. pneumoniae topo IV) (enzyme)” yielded a stoichiometry N of 2.

Reference: PMC12217528, “Structural basis of topoisomerase targeting by delafloxacin” (Nature Communications, 2025)
